Results on one molecule are retold here after article PMC5343488, “Epilepsy and intellectual disability linked protein Shrm4 interaction with GABABRs shapes inhibitory neurotransmission” (Nature Communications, 2017).

The target in the test is T1, GST-PDZ (Shrm4-PDZ domain, aa 1–91) (human, UniProt Q9ULL8 1-91).
T1 construct: Shrm4 (Shroom4), encoded by KIAA1202, PDZ domain, aa 1-91; in pGEX-4T-1, which should put GST at the N-terminus; source: E. coli BL21, purified using standard procedures
T1 sequence (looked up): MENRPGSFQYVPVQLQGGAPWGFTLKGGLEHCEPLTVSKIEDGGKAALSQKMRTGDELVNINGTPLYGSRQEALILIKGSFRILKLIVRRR
Nature of the test: pull-down; competition: synthetic Tat-859–870 peptide added to the HEK293 lysate before the pull-down of GABAB1a by purified GST-PDZ; 10 μM or different concentrations. The conditions noted are these: both partners purified.

B1: Tat-859–870 peptide (peptide)
peptide: YGRKKRRQRRRITRGEWQSET
notes: stretch of the GABAB1 C-tail named 859–870; also called Tat-peptide; Tat-859–870 (active) peptide; source: synthetic peptide (bought: Primm, Italy, and China Peptide, China)
As to B1, the binding result is “binds”.
